Data as given in paper PMC7385124, “The molecular basis of thioalcohol production in human body odour” (Scientific Reports, 2020).

Legend:
[1] = tested on: CCCC(C)(CCO)SC[C@H](N)C(=O)O; assay: purified protein, by the assay type; design: DTNB thiol release, A412, continuous steady-state Michaelis-Menten kinetics of C-S lyase; conditions: pH 7.8; 37.0 °C
Procedure: (§1) In vitro activity assays were performed using an Epoch2 (BioTek) plate reader. Reactions were measured in 96-well plate. A continuous assay, described previously[3] was used to measure 3M3SH. A 200 μL reaction contained […], variable amounts of substrate and 0.4 mM DTNB in 50 mM KPi and 200 mM NaCl, pH 7.8. […] Each reaction was incubated at 37 °C for 30 min. Release of the thiol 3M3SH was measured by reaction with DTNB to form 2-nitro-5-thiobenzoic acid (TNB) which is measured at A412 nm every minute. Background rate of DTNB decomposition was subtracted in each assay. Michaelis–Menten plots were derived from 6 to 8 substrate concentrations using Prism Version 5.01 (GraphPad) to calculate the Kcat and KM. Enzyme concentrations were assumed to be the concentration of PLP-bound enzyme with two active sites per enzyme. Velocity curves for all in vitro kinetics are shown in the supplementary information (Supplementary Information Figures S10–S12). Next, we cloned and overexpressed genes encoding a representative range of PatB-type enzymes, with two MetC proteins as controls (Fig. 2, denoted by coloured dots) and purified the proteins for biochemical analysis.

[2] = tested on: CC(C)(CCO)SC[C@H](N)C(=O)O; assay: purified protein, by the assay type; design: DTNB thiol release, A412, continuous steady-state Michaelis-Menten kinetics of C-S lyase; conditions: pH 7.8; 37.0 °C
Procedure: as §1

[3] = biological target: Staphylococcus hominis PatB (cysteine-thiol lyase, PLP-dependent C-S lyase) (Staphylococcus hominis); assay: crystal structure; ShPatB at 15 mg/mL in 20 mM Tris pH 8, 50 mM NaCl; hanging drops, 4% Tacsimate pH 6, 12% PEG 3,350, room temperature; without and with 20 mM L-cycloserine

EcTnaA (Escherichia coli K-12) was tested, and the Km [1] was 2150 µM, the kcat [1] was 0.051 s⁻¹ and the kcat/Km [1] was 23.7 M⁻¹ s⁻¹. The Km [2] was 3300 µM, the kcat [2] was 0.0117 s⁻¹ and the kcat/Km [2] was 3.33 M⁻¹ s⁻¹.

“Staphylococcus hominis PatB (cysteine-thiol lyase, PLP-dependent C-S lyase) (enzyme)” showed a stoichiometry N [3] of 2.
